Measured values from publication PMC9317729.

Biological target: S-RBD-Rhizavidin fusion protein (SARS-CoV-2 | not stated) (UniProt P0DTC2)
Assay: SEC-MALS; HPLC-SEC on AdvanceBio SEC 1.9 μm column, 0.4 mL/min, 20 mM HEPES, 100 mM sodium chloride, 25 °C; about 20 micrograms injected; MALS with first order Zimm fit

**Q.** “S-RBD-Rhizavidin fusion protein (from UniProt P0DTC2 331-524)” was tested. Which stoichiometry N did it give?
**A.** 2
